Assay results from the supplement of paper PMC10567573.

B1: C1orf137 (parent)
chain: LPQETNLTLKVCKPQAPQKLDPTL
B2: NEK8 (parent)
chain: VVGTPCYISPELCEGKPYNQKSDI

Variants of: B1
Assay: protein stability index of a GFP-peptide fusion (GPS, HEK-293T) (PSI 1-6); higher = more stable
Conditions: c terminus: a fixed tail appended
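Note: lentivirally expressed fusions sorted by FACS into six bins by GFP to DsRed ratio, PSI derived from sequencing read proportions per bin multiplied by bin number.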

Protein stability index: each site, then its substitutions
L20: P 4.48, N 4.29, M 4.13, W 3.51, G 4.91, T 4.5, A 4.75, V 4.03, Q 4.47, R 4.42
P14: S 4.27, I 2.76, T 4.16, V 3.55, F 2.71, K 4.1, R 4.27, A 3.59, G 4.55, N 4.72, E 4.71, M 3.08, D 4.76, L 2.81
A16: K 4.15, T 4.07, C 3.6, L 3.69, H 4.14, R 3.58, E 4.45, Q 3.96, V 3.94, S 4.02, G 3.98, M 3.54, I 3.56
C12: S 4.07, M 4.07, Y 3.64, D 4.79, V 3.65, K 4.43, F 3.7, E 4.39, H 4.66, T 4.62, I 3.9, N 4.31, P 4.73, Q 4.1, R 4.14, G 4.81
N6: T 3.71, L 3.57, S 3.56, E 4.15, F 3.36, M 3.22, I 2.42, G 4.6, R 3.31, Q 3.94, H 4.23, K 3.27, W 3.2, C 3.3, Y 2.99
Q18: D 4.59, K 3.97, G 3.59, N 3.52, Y 3.13, S 3.58, L 3.31, T 3.82, A 4.65, I 3.92, H 3.69, C 3.79, P 3.75, F 2.39, V 3.56
V11: Q 3.32, E 5.09, R 3.05, N 4.21, D 4.91, L 3.55, I 3.24, F 3.22, K 3.65, Y 3.82, H 4.08, W 2.44, A 4.12, C 3.96
L9: C 3.91, K 4.16, S 3.63, V 4.14, W 3.15, H 3.78, M 4.03, Q 4.59, E 4.76, D 4.92, I 4, P 3.69, R 4.58, Y 4.35, A 4.14, N 4.54
Q3: M 3.6, H 3.6, A 4.3, F 3.08, R 3.29, E 4.59, S 3.8, V 3.73, C 4.12, T 4.17
P17: W 2.3, F 3.03, L 3.07, I 4, T 3.81, D 4.52, G 3.74, C 3.51, N 3.21, A 3.97, K 4.13, S 3.62, Y 3.57, Q 4.36, H 3.58
L24: G 4.52, T 4.39, E 4.8, H 4.75, R 4.33, V 4.52, C 4.35, D 5.42, I 4.1, Q 4.37, W 3.3
L1: S 4.46, C 4, D 4.73, Q 4.38, P 4.65, R 3.48, H 3.36, N 3.77, W 3.98, F 2.79, M 4.04
P2: S 2.8, H 3.5, C 3.27, G 3.79, L 2.65, A 3.84, F 2.85, V 3.13, K 3.06, D 4.3, Y 3.14, E 4.18
L7: H 4.51, G 4.48, K 4.61, T 4.33, A 4.25, E 4.79, F 2.92, Q 4.56, Y 3.89, S 4.35, N 4.66, M 4.25, D 4.94, P 4.42
K19: N 3.56, A 3.8, W 2.36, P 3.96, Y 3.36, I 2.54, L 3.01, F 2.96, M 3.53, S 3.72, R 3.55, H 3.78, V 4.06
K13: N 4.03, A 3.98, G 4.33, H 3.56, R 3.01, F 2.11, Y 3.5, V 3.42, T 4.06, D 4.88, E 4.69, L 2.96, C 3.24
Q15: M 3.28, V 3.65, Y 2.64, A 3.91, L 2.96, C 3.58, E 4.41, W 3.5, T 4.08, S 3.86, F 2.69
T5: Y 2.88, R 3.6, N 3.69, Q 4.33, P 4.59, K 3.64, I 2.6, A 4.02, M 3.58, C 2.99, V 3.04
K10: G 3.78, A 4.61, L 2.55, P 4.17, C 3.66, D 4.56, N 4.37, F 2.18, I 2.13, H 3.48, T 3.46, E 4.5, Y 2.98, W 2.17, V 2.7, R 3.03
E4: I 2.51, W 2.32, V 3.03, N 3.94, Q 3.74, Y 2.98, A 3.77, P 4.22, G 3.36, S 3.12, D 3.7, H 3.08, C 2.37, F 2.44
T23: V 3.4, E 4.91, L 3.06, S 3.85, G 3.8, W 2.48, Q 4.21, M 3.32, Y 2.94, H 3.44, N 4.2, C 3.89, D 4.8, K 4.16, I 3.37
P22: G 3.39, L 2.93, I 2.08, E 4.13, H 3.13, A 3.16, Y 3.06, N 3.38, M 2.98, C 2.95, V 2.87, F 2.35, R 3.84, T 3.54, W 2.83, Q 4.25, K 4
D21: I 2.74, W 2.36, A 2.65, N 3.17, L 2.44, T 3.7, K 3.77, S 3.85, M 2.86, C 3.05, Q 3.19, Y 2.73
T8: H 3.88, Y 2.98, N 4.11, E 4.14, A 4.3, G 4.55, V 2.92, P 4.53, L 3.95, D 3.21, S 4.3, C 4.15, I 2.37, Q 4.21, W 2.64

Variants of: B2
Assay: as above
Conditions: c terminus: a fixed tail appended

Protein stability index, by site and new letter:
V1: I 2.32, A 3.78, M 3.42, C 3.31, G 4.28, L 3.1, D 4.53, F 1.22, E 4.48, H 2.77, K 4.06
